Measured values: patent publication US20140057807A1

Molecular target: human small ubiquitin-like modifier 1 (human) (UniProt P63165)
Test: ratio of the apparent affinity for hSUMO1 to that for ySUMO in the titration phage ELISA of FIGS. 25A and 26A; group Moderate Specificity (10-100)

Specificity Factor | Binder
13.1 | hS1MB-11 (designed binder) VSSVPTKLEVVAATPTSLLISWDASSSSVSNYAITYGETGGNSPVQEFTVPGSSSTATISGLSPGVDYTITVYAYYSYDDIFVADSPSSINYRT
12.3 | hS1MB-3 (designed binder) VSSVPTKLEVVAATPTSLLISWDASSSSVSHYAITYGETGGNSPVQEFTVPGSSSTATISGLSPGVDYTITVYAYHSYDDIFLADSPSSINYRT
52.5 | hS1MB-23 (designed binder) VSSVPTKLEVVAATPTSLLISWDASSSSVSHYEITYGETGGNSPVQEFTVPGSSSTATISGLSPGVDYTITVYAYYSHDDIFYAFSPSSINYRT

Molecular target: human small ubiquitin-like modifier 1 (human) (UniProt P63165)
Test: SPR

Kd | fold discrimination in affinity (ySUMO over hSUMOs) | Binder
54000 nM | > 600 fold | ySMB-1 (designed binder) VSSVPTKLEVVAATPTSLLISWDASSSSVSYYRITYGETGGNSPVQEFTVPGSSSTATISGLSPGVDYTITVYAYYSYYDLYYSYSPSSINYRT

Molecular target: human small ubiquitin-like modifier 1 (human) (UniProt P63165)
Test: SPR (monobody on the chip via His-tag, target flowed); estimated Kd [Continued]

Kd | Binder
652 nM | SEQ ID NO 87 (designed binder) VSSVPTKLEVVAATPTSLLISWDASSSSVSHYHITYGETGGNSPVQEFTVPGSSSTATISGLSPGVDYTITVYAFYSDDDLYFAFSPSSINYRT
2500 nM | SEQ ID NO 93 (designed binder) VSSVPTKLEVVAATPTSLLISWDASSSSVSYYEITYGETGGNSPVQEFTVPGSSSTATISGLSPGVDYTITVIAFYSHDDIYISDSPSSINYRT
738 nM | SEQ ID NO 95 (designed binder) VSSVPTKLEVVAATPTSLLISWDASSSSVSHYAITYGETGGNSPVQEFTVPGSSSTATISGLSPGVDYTITVFAYYSYDDIYYAYSPSSINYRT
2800 nM | SEQ ID NO 92 (designed binder) VSSVPTKLEVVAATPTSLLISWDASSSSVSHYEITYGETGGNSPVQEFTVPGSSSTATISGLSPGVDYTITVTAYDSYYDIYIAYSPSSINYRT
284 nM | SEQ ID NO 91 (designed binder) VSSVPTKLEVVAATPTSLLISWDASSSSVSHYEITYGETGGNSPVQEFTVPGSSSTATISGLSPGVDYTITVAAYHSYHDIFYAVSPSSINYRT
290 nM | SEQ ID NO 88 (designed binder) VSSVPTKLEVVAATPTSLLISWDASSSSVSHYGITYGETGGNSPVQEFTVPGSSSTATISGLSPGVDYTITVYAYHSYDDIYYALSPSSINYRT
3600 nM | SEQ ID NO 94 (designed binder) VSSVPTKLEVVAATPTSLLISWDASSSSVSHYAITYGETGGNSPVQEFTVPGSSSTATISGLSPGVDYTITVYAYYSYDDLYVSDSPSSINYRT
519 nM | SEQ ID NO 89 (designed binder) VSSVPTKLEVVAATPTSLLISWDASSSSVSHYAITYGETGGNSPVQEFTVPGSSSTATISGLSPGVDYTITVYAYHSYDDIFLADSPSSINYRT
145 nM | SEQ ID NO 90 (designed binder) VSSVPTKLEVVAATPTSLLISWDASSSSVSHYEITYGETGGNSPVQEFTVPGSSSTATISGLSPGVDYTITVYAYYSHEDIFYAVSPSSINYRT
2200 nM | SEQ ID NO 96 (designed binder) VSSVPTKLEVVAATPTSLLISWDASSSSVSHYDITYGETGGNSPVQEFTVPGSSSTATISGLSPGVDYTITVHAYYSYDDIYVAISPSSINYRT

Molecular target: human small ubiquitin-like modifier 1 (human) (UniProt P63165)
Test: SPR (Biacore 2000), monobody immobilised via His-tag on NTA surface, hSUMO1 flowed over it

Kd | Binder
2500 nM | hS1MB-7 (designed binder) VSSVPTKLEVVAATPTSLLISWDASSSSVSYYEITYGETGGNSPVQEFTVPGSSSTATISGLSPGVDYTITVIAFYSHDDIYISDSPSSINYRT
519 nM | hS1MB-3 (designed binder) VSSVPTKLEVVAATPTSLLISWDASSSSVSHYAITYGETGGNSPVQEFTVPGSSSTATISGLSPGVDYTITVYAYHSYDDIFLADSPSSINYRT

Molecular target: human small ubiquitin-like modifier 1 (human) (UniProt P63165)
Test: ratio of the apparent affinity for hSUMO1 to that for ySUMO in the titration phage ELISA of FIGS. 25A and 26A; group High Specificity (>100)

Specificity Factor | Binder
> 100 | hS1MB-18 (designed binder) VSSVPTKLEVVAATPTSLLISWDASSSSVSYYEITYGETGGNSPVQEFTVPGSSSTATISGLSPGVDYTITVFAYDSVEDIYVSYSPSSINYRT
> 100 | hS1MB-16 (designed binder) VSSVPTKLEVVAATPTSLLISWDASSSSVSHYDITYGETGGNSPVQEFTVPGSSSTATISGLSPGVDYTITVYAYNSHDDIFIAYSPSSINYRT
> 100 | hS1MB-7 (designed binder) VSSVPTKLEVVAATPTSLLISWDASSSSVSYYEITYGETGGNSPVQEFTVPGSSSTATISGLSPGVDYTITVIAFYSHDDIYISDSPSSINYRT
> 100 | hS1MB-20 (designed binder) VSSVPTKLEVVAATPTSLLISWDASSSSVSHYSITYGETGGNSPVQEFTVPGSSSTATISGLSPGVDYTITVYAYDSIEDIYIADSPSSINYRT
> 100 | hS1MB-17 (designed binder) VSSVPTKLEVVAATPTSLLISWDASSSSVSYYEITYGETGGNSPVQEFTVPGSSSTATISGLSPGVDYTITVSAYNSYDDIYYAVSPSSINYRT

Molecular target: human small ubiquitin-like modifier 1 (human) (UniProt P63165)
Test: ratio of the apparent affinity for hSUMO1 to that for ySUMO in the titration phage ELISA of FIGS. 25A and 26A; group Low Specificity (0-10)

Specificity Factor | Binder
0.7 | hS1MB-21 (designed binder) VSSVPTKLEVVAATPTSLLISWDASSSSVSHYGITYGETGGNSPVQEFTVPGSSSTATISGLSPGVDYTITVYAYYSYHDIFYALSPSSINYRT
2.9 | hS1MB-15 (designed binder) VSSVPTKLEVVAATPTSLLISWDASSSSVSYYDITYGETGGNSPVQEFTVPGSSSTATISGLSPGVDYTITVYAYYSYDDIYFADSPSSINYRT
1.4 | hS1MB-13 (designed binder) VSSVPTKLEVVAATPTSLLISWDASSSSVSYYAITYGETGGNSPVQEFTVPGSSSTATISGLSPGVDYTITVYAYHSYDDIYFAFSPSSINYRT
4.4 | hS1MB-12 (designed binder) VSSVPTKLEVVAATPTSLLISWDASSSSVSYYEITYGETGGNSPVQEFTVPGSSSTATISGLSPGVDYTITVFAYHSDDDLYYAFSPSSINYRT
2.6 | hS1MB-14 (designed binder) VSSVPTKLEVVAATPTSLLISWDASSSSVSHYHITYGETGGNSPVQEFTVPGSSSTATISGLSPGVDYTITVYAYYSYNDIFFADSPSSINYRT
8 | hS1MB-19 (designed binder) VSSVPTKLEVVAATPTSLLISWDASSSSVSHYGITYGETGGNSPVQEFTVPGSSSTATISGLSPGVDYTITVYAYYSYDDIFVAVSPSSINYRT
0.6 | hS1MB-22 (designed binder) VSSVPTKLEVVAATPTSLLISWDASSSSVSHYAITYGETGGNSPVQEFTVPGSSSTATISGLSPGVDYTITVYAFYSYYDIFYSDSPSSINYRT
